Each block holds one molecule with its values, some of them ahead of it.
Experiment: In vitro UGT screening: reactions of mogrol with a panel of 230 UGT enzymes, products analyzed with LC-MS
Assay type: biochemical
Conditions: for position of mogrol glycosylated by the UGT: aglycone mogrol as substrate, see FIG. 2; for product formed from mogrol substrate in the in vitro UGT reaction (LC-MS): partially purified UGT enzyme or crude enzyme extract
Description: In vitro reactions of mogrol with a panel of 230 UGT enzymes were performed and the products were analyzed with LC-MS. The in vitro UGT reaction mixtures included 4× Tris buffer, mogrol (250 μM), UDP-glucose (750 μM) and 1% alkaline phosphatase. Five μl of each partially purified UGT enzyme or crude enzyme extract was added to the reaction, and the reaction volume brought to 50 μl with water. The reactions were incubated overnight at 30° C. and performed in sterilized 96 well plates. After the incubation, 25 μL of DMSO were added into each reaction and the reaction plates were centrifuged for 5 min. Forty μL samples were taken from each well and filtered, and were used for LC-MS analysis.

[1] = mogrol 250 μM, UDP-glucose 750 μM, overnight at 30° C.

product formed from mogrol substrate in the in vitro UGT reaction (LC-MS) [1]: makes both mogroside Ia and Ib
B1: UGT 73C5: UDP dependent glucosyltransferase from Arabidopsis thaliana, glycosyltransferase family I, SEQ ID NO:2 (protein, listed as Arabidopsis thaliana)
chain: MVSETTKSSPLHFVLFPFMAQGHMIPMVDIARLLAQRGVIITIVTTPHNAARFKNVLNRAIESGLPINLVQVKFPYLEAGLQEGQENIDSLDTMERMIPFFKAVNFLEEPVQKLIEEMNPRPSCLISDFCLPYTSKIAKKFNIPKILFHGMGCFCLLCMHVLRKNREILDNLKSDKELFTVPDFPDRVEFTRTQVPVETYVPAGDWKDIFDGMVEANETSYGVIVNSFQELEPAYAKDYKEVRSGKAWTIGPVSLCNKVGADKAERGNKSDIDQDECLKWLDSKKHGSVLYVCLGSICNLPLSQLKELGLGLEESQRPFIWVIRGWEKYKELVEWFSESGFEDRIQDRGLLIKGWSPQMLILSHPSVGGFLTHCGWNSTLEGITAGLPLLTWPLFADQFCNEKLVVEVLKAGVRSGVEQPMKWGEEEKIGVLVDKEGVKKAVEELMGESDDAKERRRRAKELGDSAHKAVEEGGSSHSNISFLLQDIMELAEPNN
position of mogrol glycosylated by the UGT: glycosylates at both the C3-OH (UGT #1 in FIG. 2) and C24-OH position

position of mogrol glycosylated by the UGT: glycosylate at the C24-OH position
completeness of the mogrol glycosylation reaction [1]: the reaction was not complete
B2: UGT 73E1: UDP dependent glucosyltransferase from Stevia rebaudiana, glycosyltransferase family I, SEQ ID NO:4 (protein, listed as Stevia rebaudiana)
chain: MSPKMVAPPTNLHFVLFPLMAQGHLVPMVDIARILAQRGATVTIITTPYHANRVRPVISRAIATNLKIQLLELQLRSTEAGLPEGCESFDQLPSFEYWKNISTAIDLLQQPAEDLLRELSPPPDCIISDFLFPWTTDVARRLNIPRLVFNGPGCFYLLCIHVAITSNILGENEPVSSNTERVVLPGLPDRIEVTKLQIVGSSRPANVDEMGSWLRAVEAEKASFGIVVNTFEELEPEYVEEYKTVKDKKMWCIGPVSLCNKTGPDLAERGNKAAITEHNCLKWLDERKLGSVLYVCLGSLARISAAQAIELGLGLESINRPFIWCVRNETDELKTWFLDGFEERVRDRGLIVHGWAPQVLILSHPTIGGFLTHCGWNSTIESITAGVPMITWPFFADQFLNEAFIVEVLKIGVRIGVERACLFGEEDKVGVLVKKEDVKKAVECLMDEDEDGDQRRKRVIELAKMAKIAMAEGGSSYENVSSLIRDVTETVRAPH
product formed from mogrol substrate in the in vitro UGT reaction (LC-MS) [1]: mogroside Ib was found as the major product, together with a new glycosylated mogrol

position of mogrol glycosylated by the UGT: glycosylate at the C24-OH position
B3: UGT 85C2: UDP dependent glucosyltransferase from Stevia rebaudiana, glycosyltransferase family I, SEQ ID NO:5 (protein, listed as Stevia rebaudiana)
chain: MDAMATTEKKPHVIFIPFPAQSHIKAMLKLAQLLHHKGLQITFVNTDFIHNQFLESSGPHCLDGAPGFRFETIPDGVSHSPEASIPIRESLLRSIETNFLDRFIDLVTKLPDPPTCIISDGFLSVFTIDAAKKLGIPVMMYWTLAACGFMGFYHIHSLIEKGFAPLKDASYLTNGYLDTVIDWVPGMEGIRLKDFPLDWSTDLNDKVLMFTTEAPQRSHKVSHHIFHTFDELEPSIIKTLSLRYNHIYTIGPLQLLLDQIPEEKKQTGITSLHGYSLVKEEPECFQWLQSKEPNSVVYVNFGSTTVMSLEDMTEFGWGLANSNHYFLWIIRSNLVIGENAVLPPELEEHIKKRGFIASWCSQEKVLKHPSVGGFLTHCGWGSTIESLSAGVPMICWPYSWDQLTNCRYICKEWEVGLEMGTKVKRDEVKRLVQELMGEGGHKMRNKAKDWKEKARIAIAPNGSSSLNIDKMVKEITVLARN
product formed from mogrol substrate in the in vitro UGT reaction (LC-MS) [1]: convert all the mogrol substrate to mogroside Ib

position of mogrol glycosylated by the UGT: glycosylate at the C24-OH position
B4: UGT 73C6: UDP dependent glucosyltransferase from Arabidopsis thaliana, glycosyltransferase family I, SEQ ID NO:3 (protein, listed as Arabidopsis thaliana)
chain: MAFEKNNEPFPLHFVLFPFMAQGHMIPMVDIARLLAQRGVLITIVTTPHNAARFKNVLNRAIESGLPINLVQVKFPYQEAGLQEGQENMDLLTTMEQITSFFKAVNLLKEPVQNLIEEMSPRPSCLISDMCLSYTSEIAKKFKIPKILFHGMGCFCLLCVNVLRKNREILDNLKSDKEYFIVPYFPDRVEFTRPQVPVETYVPAGWKEILEDMVEADKTSYGVIVNSFQELEPAYAKDFKEARSGKAWTIGPVSLCNKVGVDKAERGNKSDIDQDECLEWLDSKEPGSVLYVCLGSICNLPLSQLLELGLGLEESQRPFIWVIRGWEKYKELVEWFSESGFEDRIQDRGLLIKGWSPQMLILSHPSVGGFLTHCGWNSTLEGITAGLPMLTWPLFADQFCNEKLVVQILKVGVSAEVKEVMKWGEEEKIGVLVDKEGVKKAVEELMGESDDAKERRRRAKELGESAHKAVEEGGSSHSNITFLLQDIMQLAQSNN
product formed from mogrol substrate in the in vitro UGT reaction (LC-MS) [1]: convert all the mogrol substrate to mogroside Ib

position of mogrol glycosylated by the UGT: glycosylate at the C24-OH position
B5: UGT 73C3: UDP dependent glucosyltransferase from Arabidopsis thaliana, glycosyltransferase family I, SEQ ID NO:1 (protein, listed as Arabidopsis thaliana)
chain: MATEKTHQFHPSLHFVLFPFMAQGHMIPMIDIARLLAQRGVTITIVTTPHNAARFKNVLNRAIESGLAINILHVKFPYQEFGLPEGKENIDSLDSTELMVPFFKAVNLLEDPVMKLMEEMKPRPSCLISDWCLPYTSIIAKNFNIPKIVFHGMGCFNLLCMHVLRRNLEILENVKSDEEYFLVPSFPDRVEFTKLQLPVKANASGDWKEIMDEMVKAEYTSYGVIVNTFQELEPPYVKDYKEAMDGKVWSIGPVSLCNKAGADKAERGSKAAIDQDECLQWLDSKEEGSVLYVCLGSICNLPLSQLKELGLGLEESRRSFIWVIRGSEKYKELFEWMLESGFEERIKERGLLIKGWAPQVLILSHPSVGGFLTHCGWNSTLEGITSGIPLITWPLFGDQFCNQKLVVQVLKAGVSAGVEEVMKWGEEDKIGVLVDKEGVKKAVEELMGDSDDAKERRRRVKELGELAHKAVEKGGSSHSNITLLLQDIMQLAQFKN
product formed from mogrol substrate in the in vitro UGT reaction (LC-MS) [1]: convert all the mogrol substrate to mogroside Ib

Source: US10738340B2, “Methods and materials for enzymatic synthesis of mogroside compounds” (EVOLVA SA, priority 2011, dated 2020)
